Measurements as given in the DeepSol protein solubility set.

Assay: soluble on expression in E. coli; label from the status in PepcDB or PDB records

Sequence	soluble on expression in E. coli
MVDQQDTFAEYFKNWYIFYKKPKVSKVTLNRYQYTYNVINEYFGNKLLKDITRANYQKFIVKYGQNHSPNTMKMINNCIKACVKNAVYDEEIKKDFTYNIELISNRDNVVQLEHHHHHH	soluble
MVERLEALFDALAELTGQRNAIDAKIVQIVAEIDRDGLWGATGARSISALVAWKTGASERNAKAIAAVAHRAEEFPRCVQGLGAGRLSLDQVGVIAEGAADGSDEHYAALASVATVSQLRKAISLEPKPEPEPKPDPRRSIRTNPGDGYTTYHITLPRLEAAKFDTALEASHEGLIARWEREQDPGDPAVPMPDLVDAFMALVETGWDREATRRPHGQHTAVAVHVDLKSKVAALHLGPLLGDDERRLLTCDATCEVWFELRGRVIGTGRATRTVNRRLRRALEHRDRCCVVPGCSATRGLHAHHLVHWEDGGLTEMANLVLLCPYHHRAHHRGLITITGPADQLTVTDDRGRLLTNQSLARTPLEHHHHHH	soluble
MVEVRYLGHSAVLLTDGKTRIVIDPFLTGNPMAALGVGEVQADLILVTHAHGDHFGDSVALSKKGGVVVSTFEIATYAEKHGAKSVPMNLGGTYRFEGGWLKWVPAWHSSSFPDGTYGGMPMGVVVELGGKRIYHAGDTALFSDMRLIGEMGLDLALLPIGDHFTMGPEDALKALELLRPKKVVPIHYNTFPPIRQDGEAFAQRAREKGVEGHALKPGEVLRLD	soluble
MVFDPRTLDNPKEISAYRDQRYQGTVRDQETALRTSCTLYVGNLSYYTKEDQVYELFGRAGDVRRVIMGLDRFKKTPCGFCFVEYYTREDAELALQNISNTRMDDRVIRADWDAGFIEGRQYGRGKHGGQVRDEYRKDYDPERGGYNRAIAQKG	not soluble
MVFGFTKRDRRVPDLSRYDYYYQNHEDYNKSPQLSAAAASAASAASPDRTNYSRSHSLVSHAPSIPRQRSSVKSPGRRLSTSSAAPPTSRAAAKQYSQKTYSLRSQRSGEYHLHPPGYTTNGSRMNSMTSGANVRRNYGKNKSTAGNNNDSRANSITVKTTQVTDPSGRTQSITKKTIRKINGYEYVETTTTTKNLVPLGDSQRHFDEFSENYMLQDDDILEEQASDNIHDIIEENETDNEKPYSPVSESHLQDDSELNVEKPDFPLGSYFHHKYSTDVMPLEEESSLSNFSDALDYIPPTHQTSSKYIHNKRKQASTTRRKKRPPAVKNAEAEAKKPLTEAEMYLKALEVAKRNVYHTDAASDNASAPLGSNKSRKSRMGQKMTLRSSSDSPTATANLVKSNVEVQPKRFTSSFFSRNTKSAPHEVHNHSVSTHFKSNKAVDPVPEPKSANTGLTDKEMYDQALKIAQARYYNSHGIQPEAVDNSTTAAKPRQVGVSHLGSTGSIPPNEQHYLGDSEIPVQSEVHEYEPIPLQKTKTTGSSKNKFKTMFDKVLQFSQENYGYQHKKEQGEQTPVTRNAEESFPAASISEGVTTAKPSSNEGVMTNPVVTDSPSPLQQQIDSTTASSNGQSQGNVPTSAVASTTRTRSPELQDNLKSSSSLLQDQTPQRQEDATDPTTSSTNELSAAEPTMVTSTHATKTIQAQTQDPPTKHKKSSFFTKLFKKKSSR	soluble
MVGAHQMKSEEQANMQLQQQAVLGLNWMQDSGEYKALAYQAYNAAKVAFDHAKVAKGKKKAVVADLDETMLDNSPYAGWQVQNNKPFDGKDWTRWVDARQSRAVPGAVEFNNYVNSHKGKVFYVTNRKDSSEKAGTIDDMKRLGFNGVEESAFYLKKDKSAKAARFAEIEKQGYEIVLYVGDNLDDFGNTVYGKLNADRRAFVDQNQGKFGKTFIMLPNANYGGWEGGLAEGYFKKDTQGQIKARLDAVQAWDGK	soluble
MVGNMNREALFKTLTTGYLHFWSLSRKKLWLKGETSGNFQIIEEFKVDCDADAVLFKVTSLGPICHTGNYTCFYRSYDELVNSKS	soluble
MVHNFRNDITVDWCPGCGDFGILTALTSALSELNLGSHDVAIISGIGCSGKTPHYVNAAGAHTLHGRAIPVAVGVKLTNPHLKVIVTGGDGDLMSIGAGHLVAEGRRNSGITVLMYDNAVYGLTKGQAAPTLKLGVQTKSLARPNIYDAINPIMLAISSGYSFVARGFSFEIAHLKNIIKQAIMFPGSSFIDILQPCPTYNNINTMDWYKKRVYKLDDDKSWDPVITENDPKAEEKYNKAIEKSFEWGDKIPIGVFYVNKKVPPFTERLKQYVDNYEQIPPAVQDVSTEDGKPILDPFETFKDKI	not soluble
MVHTPLNFKFSEKREEWNLRFCRNVGVSIVELVTADASSAYVRGLMAVNGSKVYSILPFISIDAEKAKKAKFPEDRMSGVRGKVIPSVLPEIKGETILDIGCGFGTLTMELAKNNPESQVYGIDLHDSLTGQAEMNAEVLGLPNVEFRTGSAYALPFEKDSIDAVTCFLMLHHLEDIKFALFEIKRVLKKGGSLTAVEPLAHQHHHGPQLSEAEWKELFEEAGFGTETENMEGAVVLRAVKRELEHHHHHH	not soluble
MVKDLSDMSLKELWQLFPIFLVEHKEEWEDWYEEEKERLLHLLPSQSIKSISHIGSTAVPDIWAKNIVDILLEVPEKEDLQDFKKRLLDAGYLLMSEGEKRLSFNKGYTKDGFAEKVFHLHLRYQGDNDELYFRDYLREYPEVAKDYERLKLGLWEKYEHNRDAYTDAKSDFIRKYTQKAKKNDKGKDN	not soluble
MVKGDITTAFIAEEYPDGFQGAVLDEPTLRRVAAAAAAMNRVAEIRRTRISGTMNNHERHVGVDWVVALQGESYHVSIAADREGSTVSFSDGSSLRVTSDWTPGQPLEHHHHHH	not soluble
MVKGRIHSVESCGTVDGPGIRYVIFTQGCLLRCQYCHNADTWEIGKGKEITVEEVMQDVTCYLPFIEASGGGITVSGGEPLLQLDFLIELFKKCKAAGIHTTIDSSGGCYSEEPEFRNKLDILMDYTDLVLLDLKHIDSKKHRKLTGKPNEHILQFARYLSDKNKPIWVRHVLVPGVTDNEEDLQKLSSFIQSLSNVQKVEVLPYHKLGVYKWEALGHKYPLANVEPPTEKNVEHAKYILQAV	not soluble
MVKSIENVKLTKGLFYNSQKKGNDVILALDIDRLLAPYYEAANLPPKKRSYGGWEEREIRGHSLGHWLSAAAAMYETTGDKALLERIDRAVQELATIQDDVGYVGGVKRAHFDEMFSGEFQVGHFNIAGTWVPWYNLHKLFAGLIDVHQLTGHSLALTVVTKLADWAKKGTDQLTDDQFQRMLICEHGGMNEAMADLYTLTGHKDYLQLAIRFCHWAVLEPLANGIDELEGKHANTQIPKVIGAAKLFEITGDDTYRAIAEFFWRQVTNDRSYIIGGNSNSEHFGPANKETLGVETAETCNTYNMLKLTEHLFRWNRSSQLMDYYEKALYNHILASQDPDSGMKTYFVSLQPGHFKVYSSLEESFWCCFGTGLENPARYTRTIYDRDDRHIYVNLFMASEIHLKDLQVQIRQETNFPETDRTKLTFVKADGVSIKLHIRVPEWVAGPVTARINGKETFSESGADYLTIEREWQKGDEIEVHLPMELRIYEAKDDSHKVGIMYGPIVLAGTFGKDHFPETDIVPNHLSLHNHPLIDVPTLVATKKTPDQWIHPVEGRSLTFRTAAIGQPGNVQITLIPFYALHHERYTVYWNLMSEVEYEAFKARKEVESDQLQARTVDAVQPGEQQPEVEHQLKANHSETGYLNIMQKRWRDSRGEDGFFSYVMKVKPNQQMSLFVTYYGGDHGLFVDGKWCDRSFRILIDDEVIKEEQLLGKNPGETLDVYYPIPLALTEGKEEVVVTFASKEGTVAGGVYGVRMLCNLEHHHHHH	soluble
MVKSVGCKNLSLDVKKAIVAGFEQGTPTKMLALQIQRSPSTIWKVIKKYQTEKSVALRISPGRPRVTTHRMDRNILRSAREDPHRTATDIQTIISSPNEPVPSKRTVRRRLQQAGLHGRKPVKKPFISKKNRMARVAWAKAHLRWGRQEWAKHIWSDESKFNLFGSDGNSWVRRPVGSRYSPKYQCPTVKHGGGSVMVWGCFTSTSMGPLRRIQSIMDRFQYENILETTMRPWALQNVGRGFVFQQDNDPKHTSLHVRSWFQPCRVHLLDWPSQSPDLNPIEHLWEELERRLGGIRASNADAKFNQLENAWKAIPMSVIHKLIDSMPRRCLAVIDANGYATKY	not soluble
MVLGKPQTDPTLEWFLSHCHIHKYPSKSTLIHQGEKAETLYYIVKGSVAVLIKDEEGKEMILSYLNQGDFIGELGLFEEGQERSAWVRAKTACEVAEISYKKFRQLIQVNPDILMRLSAQMARRLQVTSEKVGNLAFLLVTGRIAQTLLNLAKQPDAMTHPDGMQIKITRQEIGQIVGCSRETVGRILKMLEDQNLISAHGKTIVVYGTR	soluble
MVLMIVSGRSGSGKSVALRALEDMGFYCVDNLPVVLLPDLARTLADRQISAAVSIDVRNMPESPEIFEQAMNNLPGAFSPQLLFLDADRNTLIRRYSDTRRLHPLSSKNLSLESAIDKESDLLEPLRSRADLIVDTSEMSVHELAEMLRTRLLGKRERELTMVFESFGFKHGIPIDADYVFDVRFLPNPHWDPKLRPMTGLDKPVAAFLDRHTEVHNFIYQTRSYLELWLPMLETNNRSYLTVAIGCTGGKHRSVYIAEQLADYFRSRGKNVQSRHRTLEKRKT	not soluble
MVLSQRQRDELNRAIADYLRSNGYEEAYSVFKKEAELDMNEELDKKYAGLLEKKWTSVIRLQKKVMELESKLNEAKEEFTSGGPLGQKRDPKEWIPRPPEKYALSGHRSPVTRVIFHPVFSVMVSASEDATIKVWDYETGDFERTLKGHTDSVQDISFDHSGKLLASCSADMTIKLWDFQGFECIRTMHGHDHNVSSVSIMPNGDHIVSASRDKTIKMWEVQTGYCVKTFTGHREWVRMVRPNQDGTLIASCSNDQTVRVWVVATKECKAELREHRHVVECISWAPESSYSSISEATGSETKKSGKPGPFLLSGSRDKTIKMWDVSTGMCLMTLVGHDNWVRGVLFHSGGKFILSCADDKTLRVWDYKNKRCMKTLNAHEHFVTSLDFHKTAPYVVTGSVDQTVKVWECR	soluble
MVMFMVFRILGRMTKIEKEIKEEEAKYDLIIKNEAKIEPIVAEEDMEFKQGDIKPIRIKKIKIPPMSVLLICPYGRHRVGHVVAVGEEVPMPIDVEREVDMAMFACGFEGEVKKGDLIGMLLILAAEKRELEHHHHHH	not soluble
MVMKQTKQTNILAGAAVIKVLEAWGVDHLYGIPGGSINSIMDALSAERDRIHYIQVRHEEVGAMAAAADAKLTGKIGVCFGSAGPGGTHLMNGLYDAREDHVPVLALIGQFGTTGMNMDTFQEMNENPIYADVADYNVTAVNAATLPHVIDEAIRRAYAHQGVAVVQIPVDLPWQQIPAEDWYASANSYQTPLLPEPDVQAVTRLTQTLLAAERPLIYYGIGARKAGKELEQLSKTLKIPLMSTYPAKGIVADRYPAYLGSANRAAQKPANEALAQADVVLFVGNNYPFAEVSKAFKNTRYFLQIDIDPAKLGKRHKTDIAVLADAQKTLAAILAQVSERESTPWWQANLANVKNWRAYLASLEDKQEGPLQAYQVLRAVNKIAEPDAIYSIDVGDINLNANRHLKLTPSNRHITSNLFATMGVGIPGAIAAKLNYPERQVFNLAGDGGASMTMQDLATQVQYHLPVINVVFTNCQYGFIKDEQEDTNQNDFIGVEFNDIDFSKIADGVHMQAFRVNKIEQLPDVFEQAKAIAQHEPVLIDAVITGDRPLPAEKLRLDSAMSSAADIEAFKQRYEAQDLQPLSTYLKQFGLDDLQHQIGQGGF	soluble
MVMMSKQLTAQAPVDPIVLGKMGSSYGIRGWLRVFSSTEDAESIFDYQPWFIQKAGQWQQVQLESWKHHNQDMIIKLKGVDDRDAANLLTNCEIVVDSSQLPQLEEGDYYWKDLMGCQVVTTEGYDLGKVVDMMETGSNDVLVIKANLKDAFGIKERLVPFLDGQVIKKVDLTTRSIEVDWDPGFLEHHHHHH	soluble
MVNSTTLAHLNTNIDHLTTVLSSYAGRDKAIRSLAFYLQLKSTTSPDNAKEILGLAKQLSAARLVSRQFNHPGMLKSCRQIMQAFQTGRIGDPLEFLTGAAVTGIYTVYGFVELLAWLSDAKILAFNSARLYKWCLYLWLSELINGIVRQMRVIYRKGIEKSQEDILTLVGLSSDFISGVNSLPHKILWAGKLSMRQSASFSLLASIIGFYKLW	not soluble
